Test [1] deals with isolated mutant K287C/K294C αL I-domain (V130-A338) expressed on K562 cells by the PDGFR transmembrane domain (human) (UniProt P20701). Put plainly: flow cytometry. (In flow cytometry, cells or beads pass a laser one at a time.)
Test [2] addresses LFA-1 high affinity open mutant K287C/K294C (αL K287C/K294C with β2) (human) (UniProt P05107). Put plainly: flow cytometry on transfectants.
Test [3] has as its target wild-type LFA-1 (αL/β2 complex) (human) (UniProt P05107). Put plainly: cell adhesion to immobilized ICAM-1.
Test [4] concerns the target LFA-1 high affinity open mutant K287C/K294C (αL K287C/K294C with β2) (human) (UniProt P05107). Put plainly: 293T cell adhesion to immobilized ICAM-1.
Test [5] concerns the target wild-type LFA-1 (αL/β2 complex) (human) (UniProt P05107). Put plainly: 293T cell adhesion to immobilized ICAM-1.
For test [6], the target named is LFA-1 high affinity open mutant K287C/K294C (αL K287C/K294C with β2) (human) (UniProt P05107). Put plainly: K562 cell adhesion to immobilized ICAM-1.
For test [7] the target is unchanged. Put plainly: flow cytometry, 293T; normalised to TS2/4.
For test [8], the target named is LFA-1 low affinity closed mutant L289C/K294C (αL L289C/K294C with β2) (human) (UniProt P05107). Put plainly: flow cytometry, 293T; normalised to TS2/4.
Test [9] has as its target LFA-1 single cysteine substitution mutant K287C (human) (UniProt P05107). Put plainly: flow cytometry, 293T; normalised to TS2/4.
Test [10] addresses LFA-1 single cysteine substitution mutant K294C (human) (UniProt P05107). Put plainly: flow cytometry, 293T; normalised to TS2/4.
Test [11] addresses LFA-1 single cysteine substitution mutant L289C (human) (UniProt P05107). Put plainly: flow cytometry, 293T; normalised to TS2/4.
Test [12] addresses LFA-1 high affinity open mutant K287C/K294C (αL K287C/K294C with β2) (human) (UniProt P05107). Put plainly: flow cytometry, K562; normalised to TS2/4.
Test [13] concerns the target LFA-1 low affinity closed mutant L289C/K294C (αL L289C/K294C with β2) (human) (UniProt P05107). Put plainly: flow cytometry, K562; normalised to TS2/4.
Test [14] has as its target wild-type LFA-1 (αL/β2 complex) (human) (UniProt P05107). Put plainly: K562 (+CBRLFA-1/2) cell adhesion to immobilized ICAM-1.
Test [15] addresses LFA-1 high affinity open mutant K287C/K294C (αL K287C/K294C with β2) (human) (UniProt P05107). Put plainly: flow cytometry, K562; normalised to TS1/22.

These results are taken from patent US20020123614A1.

Sequence of isolated mutant K287C/K294C αL I-domain (V130-A338) expressed on K562 cells by the PDGFR transmembrane domain (human) (P20701 155-363 K312C/K319C limits assumed, form in doubt): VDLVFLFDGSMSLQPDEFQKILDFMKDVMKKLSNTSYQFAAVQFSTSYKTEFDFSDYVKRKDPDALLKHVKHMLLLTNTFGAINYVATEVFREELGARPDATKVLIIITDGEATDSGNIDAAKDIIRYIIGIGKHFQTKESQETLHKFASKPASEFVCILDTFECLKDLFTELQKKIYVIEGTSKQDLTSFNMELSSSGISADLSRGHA

As a reminder, the % inhibition is the relative decrease from the control value, in per cent. Read a high % inhibition as strong suppression. Consider monoclonal antibody CBRLFA-1/1, for which the % of binding to the wild-type I-domain in [1] amounted to 80%. Besides, the % of wild-type binding in [2] fell in the range of 40 to 50%. Besides, the % inhibition in test [3] was over 90%; in test [4] it was 9.03%; in test [5], 92.5%; in [6] it was 2.85%; in test [14] it was 94.7%. The % wild-type binding was 43.6% in [7]; 95.9% in [8]; 86.1% in test [9]; 89.4% in test [10]; 93.3% in [11]; 55.5% in test [12]. In test [13], this substance yielded a % wild-type binding of 118%.
In the case of monoclonal antibody CBRLFA-1/9, the % inhibition came out at 3.6% in [6] and 97.8% in test [14]. Further, in [15], the % wild-type binding was found to be 84.7%.
